We go through 16 molecules from patent US20230068663A1 (University of Texas, published 2023).

First the molecules themselves.
T1: LAIR1 on reporter cells (UniProt Q6GTX8 22-165, limits assumed)
T1 sequence (looked up): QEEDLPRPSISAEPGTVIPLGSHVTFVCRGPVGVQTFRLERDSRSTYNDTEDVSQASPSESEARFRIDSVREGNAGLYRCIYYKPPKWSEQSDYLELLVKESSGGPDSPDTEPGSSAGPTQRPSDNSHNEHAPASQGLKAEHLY

B1: B2-24 (antibody, V domains shown)
VH: QVQLVESGGGLVKPGGSLRLSCAASGFTFSDYYMSWIRQAPGKGLEWVSYISSSSSYTNYADSVKGRFTISRDNAKNSLYLQMNSLRAEDTAVYYCARVGDLDAFDIWGQGTMVTVSS
VL: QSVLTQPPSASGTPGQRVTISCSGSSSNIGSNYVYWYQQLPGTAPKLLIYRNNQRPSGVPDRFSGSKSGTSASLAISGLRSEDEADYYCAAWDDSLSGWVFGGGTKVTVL
notes: also called B2-24_HC; B2-24_LC
B2: B2-8 (antibody, V domains shown)
VH: QVQLVQSGAEVKKPGSSVKVSCKASGGTFSSYAISWVRQAPGQGLEWMGGIIPIFGTANYAQKFQGRVTITADESTSTAYMELSSLRSEDTAVYYCARVAVADTFFDYWGQGTLVTVSS
VL: QPVLTQPASVSGSPGQSITISCTGTSSDVGGYNYVSWYQQHPGKAPKLMIYDVSNRPSGVSNRFSGSKSGNTASLTISGLQAEDEADYYCSSYTSSSTPYVFGTGTKVTVL
notes: also called B2-8_HC; B2-8_LC
B3: B2-25 (antibody, V domains shown)
VH: QVQLVESGGGLVKPGGSLRLSCAASGFTFSDHYMSWIRQAPGKGLEWVSYITTTGSTMSYADSVKGRFTISRDNSKNSLHLQLSSLRAEDTAVYYCARDSIHVDGAFDIWGQGTMVTVSS
VL: SYELTQPPSVSVAPGQTARITCGGNNIGSKSVHWYQQKPGQAPVLVVYDDSDRPSGIPERFSGSNSGNTATLTISRVEAGDEADYYCQVWDSSSDHWVFGGGTKLTVL
notes: also called B2-25_HC; B2-25_LC
B4: B2-10 (antibody, V domains shown)
VH: QVQLVQSGGGLVQPGGSLRLSCAASGFTFSSYAMSWVRQAPGKGLEWVSTINDSGGSTYYADSVKGRFTISRDNSKNTLYLQMNSLRAEDTAVYYCAKDHITIFGVAPFDYWGLGTLVTVSS
VL: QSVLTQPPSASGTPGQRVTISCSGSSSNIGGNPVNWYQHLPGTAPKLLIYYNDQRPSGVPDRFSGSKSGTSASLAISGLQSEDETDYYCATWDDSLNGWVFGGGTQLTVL
notes: also called B2-10_HC; B2-10_LC
B5: HCB2-17 (antibody, V domains shown)
VH: QVQLVQSGAEVKKPGSSVKVSCKASGGTFSSYAISWVRQAPGQGLEWMGGIIPIFGTANYAQKFQGRVTITADESTSTAYMELSSLRSEDTAVYYCAISSGYYYNPFDYWGQGTLVTVSS
VL: not shown
notes: also called HCB2-17_HC; HCB2-17_LC
B6: HCB2-13 (antibody, V domains shown)
VH: QVQLVESGGGLVQPGGSLRLSCAASGFTLSSYAMSWVRQAPGEGLEWVSSINSGGSTYYAGSVRGRFTISRDNSKNTLYLQMNSLRAEDTAVYYCAKAKSYSSDLDHWGQGTTVTVSS
VL: DVVMTQSPSSLSVSAGEKVTMSCKSSQSLLNSGNQKTYLAWYQQKPGQPPKLLIYGASTRESGVPDRFTGSGSGTDFTLTISSVQAEDLAVYYCQNDHSYPFTFGSGTKVEIKR
notes: also called HCB2-13_HC; HCB2-13_LC
B7: HCB2-15 (antibody, V domains shown)
VH: QVQMVESGGDLVQPGQSLRLSCVTSGFPFADYAMSWFRQAPGQRPEWIGYIKSKTRDGTTKYAESLRGRFTISRDDSKSIAYLQMNNLKREDTAVYYCALGGAAALWGPGTLVSVSS
VL: QPPSVSGAPGQRVTISCAGSSSNIGAGYGVHWYQHLPGTAPKLLIYGDNNRPSGVPYRFSGSKSGTSASLAITGLQAEDEADYFCQSYDSSLGVGVFGGGTKVTVL
notes: also called HCB2-15_HC; HCB2-15_LC
B8: HCB2-18 (antibody, V domains shown)
VH: QVQLVQSGAEVKKPGSSVKVSCKASGGTFSSYAISWVRQAPGQGLEWMGGIIPIFGTANYAQKFQGRVTITADESTSTAYMELSSLRSEDTAVYYCARGGYQPLDYWGQGTLVIVSS
VL: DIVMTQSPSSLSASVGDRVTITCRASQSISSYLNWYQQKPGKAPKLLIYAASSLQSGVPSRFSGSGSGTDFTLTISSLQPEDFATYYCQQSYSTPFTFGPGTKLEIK
notes: also called HCB2-18_HC; HCB2-18_LC
B9: HCB2-1c (antibody, V domains shown)
VH: EVQLVQSGAEVKKPGASVKVACKASGYTFTDYYIHWVRQAPGQGLEWMGIVNANGGDTNYAQQFQGRVTMTRDTSTSTVYLELTSLRSDDTAVYYCARDWYYYSSGSFPFDYWGQGTLVSVSS
VL: AIQMTQSPSSLSASVGDRVSITCRASQSISSFLNWYQQRPGKAPELLIYGASSLQSGVPSRFSGSGSGTDFTLTISSLQPEDFATYYCQQSYSIPITFGQGTQLEIK
B10: HCB2-2 (antibody, V domains shown)
VH: QVQLVQSGAEVKKPGASVKVSCKASGYIFNTYGISWVRQAPGQGLEWMGWTNVYNSNTDSGHKFQGRVTMTTDTSTDTAYMELRSLRSDDTAVYYCARDPGSAIFDMWGQGTMVTVSS
VL: B9 VL with A1D, I2V, Q103R
notes: also called HCB2-2_HC; HCB2-2_LC
B11: HCB2-1d (antibody, V domains shown)
VH: B9 VH
VL: DVQMTQSPSSLSASVGDRVSITCKASQDVSIAVAWYQQKPGKAPKLLIYSASYRYTGVPDRFSGSGSGTDFTLTISSLQPEDFAVYYCQQHYITPLTFGAGTKLEIK
B12: HCB2-4 (antibody, V domains shown)
VH: QVELQESGPGLVKPSETLSLTCTVSGDAIKDKYWSWVRQPPGKGLEWIGYISNSGSTNYNPSLKSRVSLSVDTSKNQFSLKQTSVTAADTATYYCARGSGYTAFDIWGQGTMVTVSS
VL: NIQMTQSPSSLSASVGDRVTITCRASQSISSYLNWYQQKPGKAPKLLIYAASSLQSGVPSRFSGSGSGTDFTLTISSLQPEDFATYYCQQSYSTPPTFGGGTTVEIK
notes: also called HCB2-4_HC; HCB2-4_LC
B13: HCB2-27 (antibody, V domains shown)
VH: QVQLVESGGGLVKPGGSLRLSCAASGFTFANAWMGWVRQAPGKGLQWVSHIKPSSSGGRTTDYDAPVKGRFTISRDDSNDTVYLQMNSLKTEDTGVYYCVTGRRVAKTFDFWGQGTTVSVSS
VL: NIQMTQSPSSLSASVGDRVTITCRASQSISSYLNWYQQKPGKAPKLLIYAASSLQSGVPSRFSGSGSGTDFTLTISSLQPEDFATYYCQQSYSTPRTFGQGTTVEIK
notes: also called HCB2-27_HC; HCB2-27_LC
B14: HCB2-24 (antibody, V domains shown)
VH: QMQLEQSGAEVKKPGSSVKVSCKASGGTFSSYAISWVRQAPGQGLEWMGGIIPIFGTANYAQKFQGRVTITADKSTSTAYMELSSLRSEDTAVYYCARAGGIHYYDSLDYWGQGTLVTVSS
VL: not shown
notes: also called HCB2-24_HC; HCB2-24_LC
B15: HCB2-10 (antibody, V domains shown)
VH: QVQLVESGGGLVQPGGSLRLSCAASGFTFSNYAMSWVRQAPGKGLEWVSAISGSSISTYYADSVKGRFTISRDNSKNTLYLQMNSLRAEDTAVYYCASSGFGSFDYWGQGTLVTVSS
VL: QPPSVSAAPRQRVTISCSGSSSNIGDNSVNWYQQLPGKAPKLLIYLDDLLPSGVSGRFSGSKSGTSASLVISGLQSEDEADYYCATWDDSLNGVVFGGGTKVTVL
notes: also called HCB2-10_HC; HCB2-10_LC
B16: HCB2-5 (antibody, V domains shown)
VH: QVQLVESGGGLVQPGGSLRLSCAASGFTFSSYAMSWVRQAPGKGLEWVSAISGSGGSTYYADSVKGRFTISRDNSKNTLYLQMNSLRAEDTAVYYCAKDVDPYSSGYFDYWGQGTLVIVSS
VL: AIQMTQSPSSVSASVGDRVTITCRASQGIGSWLAWYQQKPGKAPKLLISVASSLQSGVPSRFSGSGSGTDFTLTISSLQPEDFATYYCQQANSFPLTFGGGTTVEIK
notes: also called FCB2-5; HCB2-5_HC

By EC50 is commonly meant the concentration that produces a half-maximal response. A word on the Kd: it is the free concentration of one partner at which half of the binding sites on the other are occupied at equilibrium, for simple one-to-one binding. Read a low Kd as higher affinity. The term koff denotes a measure of how fast the partners let go of each other. The low end stands for slow dissociation, the high end for fast dissociation. A word on the kon: it is the rate constant with which the complex forms. Higher therefore signals fast association.

Changes are numbered by the printed parent chain.

The target in the first assay is T1, LAIR1 on reporter cells. The assay is described as follows: flow cytometry, reporter cells. A general note: A flow cytometer gives signals particle by particle.
Consider B1, for which the binding result is reported as “no binding”.

Regarding B2, the binding result is reported as “no binding”.

For another assay, the target named is T1, LAIR1 on reporter cells. The assay is described as follows: flow cytometry, reporter cells [cont'd].
Turning to B3, the binding result is “no binding”.

In the next assay the target is T2, LILRB2-His antigen (UniProt Q8N423 22-460, limits assumed).
T2 construct: Coated on ELISA plates; also used for phage panning; also called LILRB2 antigen; not shown: His tag
The assay is described as follows: ELISA titration on LILRB2 and LILRA1 antigens.
With B4, the “fold potency of binding to LILRB2 against binding to LILRA1” value is more than 100 fold.

The target in a further assay is T3, full extracellular domain (ECD) of LILRB2 fused to Fc fragment of mouse IgG2a (human; mouse, UniProt Q8N423 22-460).
T3 construct: extracellular domain; also called B2-ECD; wildtype B2-ECD; not shown: Fc fragment of mouse IgG2a
The assay is described as follows: ELISA, coated human LILRB2 ECD-mIgG2a Fc [panel A]. An excerpt: FIGS. 19A-B. ELISA binding measurement of antibodies to human and non-human primate (cynomolgus monkey, cyno) LILRB2 recombinantly produced in HEK293 cells. (FIG. 19A) ELISA binding to human LILRB2. (FIG. 19B) ELISA binding to cyno-LILRB2. The fusion proteins of the extracellular domain (ECD) of human LILRB2 or NHP-LILRB2 with Fe of mouse IgG2a were used to coat ELISA plates and antibodies were titrated in different concentrations as indicated in the graph.
For the molecule B5, the binding result was “binds”.

For B6, the binding result is reported as “binds”.

Regarding B7, the binding result is listed as “binds”.

B8: the binding result is given as “binds”.

Consider B9, for which the binding result is recorded as “binds”.

In the case of B10, the binding result is listed as “binds”.

For the molecule B11, the binding result is listed as “binds”.

For the molecule B12, the binding result was “binds”.

B13: the binding result was “binds”.

Take B14: the binding result is given as “binds”.

The next assay has as its target T2, LILRB2-His antigen. The assay is described as follows: indirect ELISA, coated LILRB2-His. The method, then:
ELISA binding EC of LILRB2 antibodies. The ELISA binding EC₅₀ of these 24 antibodies were measured by indirect ELISA. […] After incubation, HRP-conjugated goat anti-human Fc secondary antibody was incubated with the plates. The TMB substrate was added for color development and measurement of absorbance at 450 nm.
As to B3, the EC50 turned out to be 1.73 nM. That is a single-digit nanomolar value.

Molecule B1 gave an EC50 of 5.06 nM.

In turn, B2 displayed an EC50 of 0.557 nM.

Consider B4, for which the EC50 worked out at 0.575 nM.

Another assay concerns the target T1, LAIR1 on reporter cells. The assay is described as follows: flow cytometry, reporter cells. The source holds these as a separate data set. As for the experimental part: Binding of LILRB2 monoclonal antibodies was detected using flow cytometry on LILRAs, LILRBs or LAIR1-expressing reporter cells using a Allophycocyanin (APC)-labeled goat anti-human IgG Fc specific secondary antibody. Non: non-stained reporter cells. NEG: cells incubated only with secondary Ab. POS: cells incubated with commercial antibody conjugated with APC or AF647 for the respective LIL or LAIR-1 receptors. The number indicates mean fluorescence intensity (MFI) of APC or AF647.
Turning to B15, the binding result is reported as “no binding”.

As for B16, the binding result is on record as “no binding”.

The target of a further assay is T4, LILRB2 (antigen in solution, Octet RED 96) (UniProt Q8N423 22-460, limits assumed).
T4 construct: also called LILRB2 solution
The assay is described as follows: BLI (Octet RED 96), antibody on protein A biosensor, LILRB2 in solution. The method, then: Affinity measurement of blocking antibodies. Affinities of the 5 blocking antibodies were measured on Octet RED 96 system.
A general note: BLI is a label-free optical method that tracks binding on a fibre tip over time.
Molecule B15 registered a Kd of 8.67 nM, a koff of 0.0061 s⁻¹ and a kon of 703000 M⁻¹ s⁻¹.

In turn, B16 showed a Kd of 10.2 nM, a koff of 0.00324 s⁻¹ and a kon of 317000 M⁻¹ s⁻¹.

The next assay deals with T5, LILRB2 chimeric receptor on LILRB2 reporter cells (extracellular domain of LILRB2 fused with … (UniProt Q8N423 22-460)).
T5 construct: extracellular domain;domain: transmembrane/intracellular domains; associates with DAP12; also called LILRB2-expressing reporter cells
The assay is described as follows: flow cytometry, LILRB2 reporter cells. An excerpt:
FIGS. 1A-C. Screening specific monoclonal antibodies for LILRB2. […] Binding of monoclonal antibodies was screened using flow cytometer on LILRB2 reporter cells. Bound antibodies were detected with Allophycocyanin (APC)-labeled goat anti-human IgG secondary antibody. (FIG. 1B) Quantification of binding ability of monoclonal antibodies to LILRB2 reporter cells.
Screening specific monoclonal antibodies for LILRB2. The inventors employed a stable reporter cell system to detect the binding ability of selected monoclonal antibodies to LILRB2. In this chimeric receptor reporter system, the extracellular domain (ECD) of LILRB2 is fused with transmembrane/intracellular domains of PILRb that associates with the adaptor protein DAP12 containing an immunoreceptor tyrosine-based activation motif. 27 monoclonal antibodies were screened. The LILRB2 reporter cells were incubated with selected monoclonal antibody, then labeled with (APC) goat anti-human IgG secondary antibody. […] The inventors generated LILRBAs and LILRBs reporters stably transduced with each receptor's extracellular domain (ECD).
On to B3, for which the “% of cells anti-hIgG APC+” value came to 39.2%.

Consider B1, for which the “% of cells anti-hIgG APC+” value amounted to 13%.

As to B2, the “% of cells anti-hIgG APC+” value is 24.8%.

For the molecule B4, the “% of cells anti-hIgG APC+” value is 35.1%.
